Test results: US10584350B2, “Structurally modified COI1” (Board of Trustees of Michigan State University, priority 2016, dated 2020)

Tested on: COI1-JAZ9 interaction
Assay: Quantitative liquid Y2H assays (Beta-Glo, RLU)
Assay type: cell-based, Arabidopsis
Settings: liquid Y2H, yeast; for COR-dependent COI1-JAZ9 interaction: 1 μM COR; for JA-Ile-dependent COI1-JAZ9 interaction: 10 or 30 μM JA-Ile
Protocol: Yeast EGY48 strain carrying the p8Op:LacZ reporter plasmid was co-transformed with pGilda:COI1 (or COI1 mutants) and pB42AD:JAZ9 (or other JAZs) (Clontech). Colonies were selected on SD minimal plates (BD Biosciences) supplemented with the—uracil (U)/-tryptophan (W)/-histidine (H) amino acid drop out solution (Clontech). Yeast colonies were cultured overnight in liquid SD-UWH medium, harvested, washed twice in sterile water, and the absorbance (OD600) of the cultures was adjusted to 0.2 in liquid SD galactose/raffinose-UWH medium (BD Biosciences).
For liquid Y2H assays, cultures were supplemented with designated concentrations of JA-Ile (10 or 30 μM), COR (1 μM), or DMSO. After 16-h incubation with ligands, the liquid cultures were processed through the Beta-Glo Assay system (Promega) for detecting the β-galactosidase activity. […] Protein expression in yeast was detected using anti-LexA antibody (1:5,000; Upstate Biotechnology) for detection of COI1 expression from pGilda vector and anti-HA (1:5,000; Roche Life Science) antibody for detection of JAZ9 expression in pB42AD vector.

| Molecule | COR-dependent COI1-JAZ9 interaction | JA-Ile-dependent COI1-JAZ9 interaction |
| --- | --- | --- |
| COI1A86I: COI1 mutant, alanine 86 substituted with isoleucine (protein, left off: small tags and cut ends, COI1 mutant, alanine 86 substituted with isoleucine) MEDPDIKRCKLSCVATVDDVIEQVMTYITDPKDRDSASLVCRRWFKIDSETREHVTMALCYTATPDRLSRRFPNLRSLKLKGKPRIAMFNLIPENWGGYVTPWVTEISNNLRQLKSVHFRRMIVSDLDLDRLAKARADDLETLKLDKCSGFTTDGLLSIVTHCRKIKTLLMEESSFSEKDGKWLHELAQHNTSLEVLNFYMTEFAKISPKDLETIARNCRSLVSVKVGDFEILELVGFFKAAANLEEFCGGSLNEDIGMPEKYMNLVFPRKLCRLGLSYMGPNEMPILFPFAAQIRKLDLLYALLETEDHCTLIQKCPNLEVLETRNVIGDRGLEVLAQYCKQLKRLRIERGADEQGMEDEEGLVSQRGLIALAQGCQELEYMAVYVSDITNESLESIGTYLKNLCDFRLVLLDREERITDLPLDNGVRSLLIGCKKLRRFAFYLRQGGLTDLGLSYIGQYSPNVRWMLLGYVGESDEGLMEFSRGCPNLQKLEMRGCCFSERAIAAAVTKLPSLRYLWVQGYRASMTGQDLMQMARPYWNIELIPSRRVPEVNQQGEIREMEHPAHILAYYSLAGQRTDCPTTVRVLKEPI | reduced | abolished |
| COI1A86V: COI1 mutant, alanine 86 substituted with valine (protein, left off: small tags and cut ends, COI1 mutant, alanine 86 substituted with valine) MEDPDIKRCKLSCVATVDDVIEQVMTYITDPKDRDSASLVCRRWFKIDSETREHVTMALCYTATPDRLSRRFPNLRSLKLKGKPRVAMFNLIPENWGGYVTPWVTEISNNLRQLKSVHFRRMIVSDLDLDRLAKARADDLETLKLDKCSGFTTDGLLSIVTHCRKIKTLLMEESSFSEKDGKWLHELAQHNTSLEVLNFYMTEFAKISPKDLETIARNCRSLVSVKVGDFEILELVGFFKAAANLEEFCGGSLNEDIGMPEKYMNLVFPRKLCRLGLSYMGPNEMPILFPFAAQIRKLDLLYALLETEDHCTLIQKCPNLEVLETRNVIGDRGLEVLAQYCKQLKRLRIERGADEQGMEDEEGLVSQRGLIALAQGCQELEYMAVYVSDITNESLESIGTYLKNLCDFRLVLLDREERITDLPLDNGVRSLLIGCKKLRRFAFYLRQGGLTDLGLSYIGQYSPNVRWMLLGYVGESDEGLMEFSRGCPNLQKLEMRGCCFSERAIAAAVTKLPSLRYLWVQGYRASMTGQDLMQMARPYWNIELIPSRRVPEVNQQGEIREMEHPAHILAYYSLAGQRTDCPTTVRVLKEPI | reduced | abolished |
| COI1A384I: COI1 mutant, alanine 384 substituted with isoleucine (protein, left off: small tags and cut ends, COI1 mutant, alanine 384 substituted with isoleucine) MEDPDIKRCKLSCVATVDDVIEQVMTYITDPKDRDSASLVCRRWFKIDSETREHVTMALCYTATPDRLSRRFPNLRSLKLKGKPRAAMFNLIPENWGGYVTPWVTEISNNLRQLKSVHFRRMIVSDLDLDRLAKARADDLETLKLDKCSGFTTDGLLSIVTHCRKIKTLLMEESSFSEKDGKWLHELAQHNTSLEVLNFYMTEFAKISPKDLETIARNCRSLVSVKVGDFEILELVGFFKAAANLEEFCGGSLNEDIGMPEKYMNLVFPRKLCRLGLSYMGPNEMPILFPFAAQIRKLDLLYALLETEDHCTLIQKCPNLEVLETRNVIGDRGLEVLAQYCKQLKRLRIERGADEQGMEDEEGLVSQRGLIALAQGCQELEYMIVYVSDITNESLESIGTYLKNLCDFRLVLLDREERITDLPLDNGVRSLLIGCKKLRRFAFYLRQGGLTDLGLSYIGQYSPNVRWMLLGYVGESDEGLMEFSRGCPNLQKLEMRGCCFSERAIAAAVTKLPSLRYLWVQGYRASMTGQDLMQMARPYWNIELIPSRRVPEVNQQGEIREMEHPAHILAYYSLAGQRTDCPTTVRVLKEPI | disrupted | disrupted |
